Laboratory results as given in patent US20250340651A1 (CULLINAN MICA, published 2025).

T1: Recombinant MICA*04 protein
T1 construct: Coated on ELISA plates
T1 sequence (Q29983 whole entry, species assumed, looked up): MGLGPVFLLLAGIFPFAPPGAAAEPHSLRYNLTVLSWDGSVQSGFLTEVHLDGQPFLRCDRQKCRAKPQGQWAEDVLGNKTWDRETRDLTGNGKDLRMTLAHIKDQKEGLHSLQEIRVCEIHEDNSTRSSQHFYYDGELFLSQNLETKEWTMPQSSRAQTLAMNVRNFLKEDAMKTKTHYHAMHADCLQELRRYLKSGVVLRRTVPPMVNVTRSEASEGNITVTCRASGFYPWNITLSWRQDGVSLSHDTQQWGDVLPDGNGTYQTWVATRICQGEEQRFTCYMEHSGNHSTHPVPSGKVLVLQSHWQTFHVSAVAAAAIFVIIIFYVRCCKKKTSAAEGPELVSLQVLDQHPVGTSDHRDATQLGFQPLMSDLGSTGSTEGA

T2: Recombinant MICA*02 protein
T2 construct: Coated on ELISA plates
T2 sequence (Q29983 whole entry, species assumed, looked up): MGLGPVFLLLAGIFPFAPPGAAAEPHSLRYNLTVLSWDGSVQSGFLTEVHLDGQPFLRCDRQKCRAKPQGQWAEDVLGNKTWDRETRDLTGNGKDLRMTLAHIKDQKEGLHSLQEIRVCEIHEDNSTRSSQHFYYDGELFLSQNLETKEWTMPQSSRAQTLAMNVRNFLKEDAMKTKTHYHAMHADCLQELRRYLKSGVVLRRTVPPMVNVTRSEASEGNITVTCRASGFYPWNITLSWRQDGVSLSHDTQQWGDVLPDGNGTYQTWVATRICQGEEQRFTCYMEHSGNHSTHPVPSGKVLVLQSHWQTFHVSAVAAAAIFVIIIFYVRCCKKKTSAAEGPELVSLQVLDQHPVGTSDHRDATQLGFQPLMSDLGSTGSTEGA

T3: Recombinant MICB protein (UniProt Q29980 23-298, limits assumed)
T3 construct: Coated on ELISA plates
T3 sequence (looked up): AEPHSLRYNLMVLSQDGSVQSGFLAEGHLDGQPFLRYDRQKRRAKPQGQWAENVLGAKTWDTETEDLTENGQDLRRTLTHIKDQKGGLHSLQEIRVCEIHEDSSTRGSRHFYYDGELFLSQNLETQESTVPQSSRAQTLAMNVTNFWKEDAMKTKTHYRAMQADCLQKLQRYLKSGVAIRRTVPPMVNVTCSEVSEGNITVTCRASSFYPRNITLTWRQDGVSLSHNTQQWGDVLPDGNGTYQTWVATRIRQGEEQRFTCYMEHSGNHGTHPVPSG

T4: Recombinant MICA*09 protein
T4 construct: Coated on ELISA plates
T4 sequence (Q29983 whole entry, species assumed, looked up): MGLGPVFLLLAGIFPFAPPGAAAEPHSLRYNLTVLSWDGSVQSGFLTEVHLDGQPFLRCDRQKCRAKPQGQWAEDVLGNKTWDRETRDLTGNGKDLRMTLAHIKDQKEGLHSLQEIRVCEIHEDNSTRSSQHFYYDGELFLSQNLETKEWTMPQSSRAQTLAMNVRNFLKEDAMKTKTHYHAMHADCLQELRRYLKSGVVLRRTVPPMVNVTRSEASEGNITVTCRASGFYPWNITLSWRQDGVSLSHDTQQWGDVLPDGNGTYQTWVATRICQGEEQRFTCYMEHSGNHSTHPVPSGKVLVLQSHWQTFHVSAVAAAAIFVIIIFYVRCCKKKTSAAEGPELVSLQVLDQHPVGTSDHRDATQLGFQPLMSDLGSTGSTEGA

T5: Recombinant MICA*01 protein (Homo sapiens (Human), UniProt Q29983 24-307)
T5 construct: Coated on ELISA plates
T5 sequence: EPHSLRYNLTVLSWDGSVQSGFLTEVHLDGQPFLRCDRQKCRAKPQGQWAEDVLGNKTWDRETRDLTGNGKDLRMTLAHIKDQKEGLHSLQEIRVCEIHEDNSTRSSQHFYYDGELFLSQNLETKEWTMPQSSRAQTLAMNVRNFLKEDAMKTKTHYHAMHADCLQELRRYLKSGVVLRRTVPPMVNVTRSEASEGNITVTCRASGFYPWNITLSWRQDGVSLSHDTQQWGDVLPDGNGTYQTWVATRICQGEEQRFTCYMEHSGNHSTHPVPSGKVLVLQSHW

T6: Recombinant MICA*08 protein
T6 construct: Coated on ELISA plates
T6 sequence (Q29983 whole entry, species assumed, looked up): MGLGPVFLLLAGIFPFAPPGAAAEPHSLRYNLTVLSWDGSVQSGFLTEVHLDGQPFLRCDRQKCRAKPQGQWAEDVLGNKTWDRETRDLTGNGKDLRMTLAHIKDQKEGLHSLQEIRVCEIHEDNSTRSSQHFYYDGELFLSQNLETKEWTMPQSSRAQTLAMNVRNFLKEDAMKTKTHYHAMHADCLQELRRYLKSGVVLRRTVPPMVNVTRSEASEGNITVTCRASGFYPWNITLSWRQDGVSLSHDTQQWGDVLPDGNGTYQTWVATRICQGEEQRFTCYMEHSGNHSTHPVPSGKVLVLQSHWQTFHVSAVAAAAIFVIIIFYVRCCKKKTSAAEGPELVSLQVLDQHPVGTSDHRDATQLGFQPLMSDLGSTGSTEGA

T7: CD32A (167His)
T7 construct: also called FcγRIIA 167His; not shown: The vendor's tag
T7 chain: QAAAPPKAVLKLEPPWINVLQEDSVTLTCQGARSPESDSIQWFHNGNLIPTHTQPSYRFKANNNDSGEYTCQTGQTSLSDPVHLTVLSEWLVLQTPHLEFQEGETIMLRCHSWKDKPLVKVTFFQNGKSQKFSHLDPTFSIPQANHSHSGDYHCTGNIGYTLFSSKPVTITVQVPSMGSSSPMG

T8: CD32B (human, UniProt P31994)
T8 construct: also called FcγRIIB
T8 sequence (receptor, looked up): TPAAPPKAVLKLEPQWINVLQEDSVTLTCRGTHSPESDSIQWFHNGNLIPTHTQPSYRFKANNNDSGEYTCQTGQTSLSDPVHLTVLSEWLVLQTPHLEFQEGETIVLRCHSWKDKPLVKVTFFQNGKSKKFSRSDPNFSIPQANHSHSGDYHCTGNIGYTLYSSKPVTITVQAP


How the values were obtained:
[1] = target: MICA antigen of Table 2 (purified 6×His-MICA*08 or 6×His-MICA*04 protein); test: BLI (ForteBio Octet Red96); mAb captured on anti-mouse IgG Fc sensors, 6×His-MICA in solution, 1:1 model
Description: Affinity kinetics was determined on a ForteBio Octet Red96 analyzer. […] Sensors were washed in assay buffer and then incubated with purified 6×His-MICA*08 or 6×His-MICA*04 proteins (100 nM), in 2-fold dilution series for 5 minutes in assay buffer to determine association kinetics of the antibody with the protein antigen. Sensors were then incubated in assay buffer for 10 minutes to determine dissociation kinetics. The resulting kinetics parameters were calculated with ForteBio analysis suite 8.0 using a 1:1 model.

[2] = target: T1, Recombinant MICA*04 protein; test: ELISA on coated recombinant antigen (1 µg/ml), goat anti-mouse IgG-HRP, OD 450 nm
Description: (§1) Recombinant MICA*01, MICA*02, MICA*04, MICA*08, MICA*09, and MICB proteins were diluted to 1 μg/ml in 50 mM sodium carbonate buffer, pH 9.6, and coated onto high binding 96-well microplates (Corning #9018), 100 ng in 100 μl per well. The following morning, coated ELISA plates were washed three times with TBS-Tween-20, pH 7.4 and then blocked in SuperBlock T20 Blocking Buffer (Pierce #37536). After blocking, ELISA plates were washed once with TBS-T and incubated with serially diluted anti-MICA antibody ([…]) for approximately two hours at room temperature. Following the incubation, ELISA plates were washed three times with TBS-T and then incubated with Goat anti-Mouse IgG (H+L)-HRP conjugate (ThermoFisher Scientific #626520) for 45 minutes at room temperature with shaking (˜400 rpm). After the incubation, ELISA plates were washed three times with TBS-T and incubated with Super Sensitive Liquid Substrate TMB (Sigma #T4444), 100 μl per well, until color development was sufficient. The reaction was stopped with 1N sulfuric acid, 100 μl per well. Optical density (OD) values were measured at 450 nm using a microplate reader.

[3] = target: T2, Recombinant MICA*02 protein; test: as above
Description: as §1

Recombinant MICB protein = target: T3, Recombinant MICB protein; test: as above
Description: as §1

[4] = target: T4, Recombinant MICA*09 protein; test: as above
Description: as §1

[5] = target: T5, Recombinant MICA*01 protein; test: as above
Description: as §1

[6] = target: T6, Recombinant MICA*08 protein; test: as above
Description: as §1

human FcγRI = target: T9, human FcγRI (human, UniProt P12314 16-288, limits assumed); test: Biacore (SPR), receptor loaded on the chip, antibody 0.411 to 33.33 nM as analyte, 1:1 affinity analysis (FIG. 9)
T9 construct: Biacore partner; also called FcγR1
T9 sequence (P12314 16-288 limits assumed): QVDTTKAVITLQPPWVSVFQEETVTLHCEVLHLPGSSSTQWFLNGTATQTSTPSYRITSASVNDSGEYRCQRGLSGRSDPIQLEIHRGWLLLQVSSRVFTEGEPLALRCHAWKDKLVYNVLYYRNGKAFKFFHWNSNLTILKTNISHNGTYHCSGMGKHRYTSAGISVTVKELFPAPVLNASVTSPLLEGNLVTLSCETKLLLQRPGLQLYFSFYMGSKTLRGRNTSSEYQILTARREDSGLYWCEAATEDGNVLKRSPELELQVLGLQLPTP

human FcRn = human FcRn (human, UniProt P55899 24-297; P61769 21-119, limits assumed); test: Biacore (SPR), steady state analysis, pH 6.0; Relative Binding +++
Sequence of human FcRn (P55899 24-297 limits assumed, chain 1 of 2): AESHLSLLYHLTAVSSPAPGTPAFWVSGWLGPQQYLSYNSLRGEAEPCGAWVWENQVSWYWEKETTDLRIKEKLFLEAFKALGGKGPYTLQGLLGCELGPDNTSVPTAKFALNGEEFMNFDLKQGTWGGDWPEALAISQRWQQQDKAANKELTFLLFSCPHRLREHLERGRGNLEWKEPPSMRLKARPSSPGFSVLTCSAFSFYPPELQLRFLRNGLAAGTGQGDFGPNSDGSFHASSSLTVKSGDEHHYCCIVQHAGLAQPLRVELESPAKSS
Sequence of human FcRn (P61769 21-119 limits assumed, chain 2 of 2): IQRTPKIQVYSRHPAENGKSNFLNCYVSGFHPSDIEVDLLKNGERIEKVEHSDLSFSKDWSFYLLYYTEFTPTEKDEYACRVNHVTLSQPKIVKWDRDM

CD32A (167His) = target: T7, CD32A (167His); test: Biacore (SPR), receptor loaded on the chip, antibody 296.3 to 24000 nM as analyte, steady state analysis (FIG. 9)
CD32B = target: T8, CD32B; test: as above
CD16A (176 Val) = target: T10, CD16A (176 Val) (human, UniProt P08637); test: Biacore (SPR), receptor loaded on the chip, antibody as analyte, steady state analysis (FIG. 9)
T10 construct: also called FcγRIIIA 176 Val
T10 sequence (P08637 17-208 F176V limits assumed): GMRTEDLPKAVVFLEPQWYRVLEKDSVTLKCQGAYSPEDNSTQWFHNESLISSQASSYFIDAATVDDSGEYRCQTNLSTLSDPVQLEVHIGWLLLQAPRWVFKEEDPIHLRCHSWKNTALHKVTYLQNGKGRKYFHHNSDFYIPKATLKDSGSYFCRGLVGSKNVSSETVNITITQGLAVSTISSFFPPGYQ

CD16A (176 Phe) = target: T11, CD16A (176 Phe) (human, UniProt P08637); test: as above
T11 construct: also called FcγRIIIA 176Phe
T11 sequence (P08637 17-208 limits assumed): as the sequence (P08637 17-208 F176V limits assumed) above, with V160F counted along it

Binder	Kd [1] [nM]	koff [1] [s⁻¹]	kon [1] [M⁻¹ s⁻¹]	EC50 (read off the curve) [2] [µg/mL]	EC50 (read off the curve) [3] [µg/mL]	EC50 (read off the curve) (Recombinant MICB protein) [µg/mL]	EC50 (read off the curve) [4] [µg/mL]	EC50 (read off the curve) [5] [µg/mL]	EC50 (read off the curve) [6] [µg/mL]	binding result (human FcγRI)	Kd (human FcRn) [nM]	binding result (CD32A (167His))	binding result (CD32B)	binding result (CD16A (176 Val))	binding result (CD16A (176 Phe))
16F10.C12 (antibody, V domains shown, Mouse monoclonal: captured on anti-mouse IgG Fc sensors) VH: EVQLQESGPGLVAPSQSLSITCTVSGFSLTAFGVNWVRQPPGKGLEWLGMIWGDGNTDYNSTLRSRLSISKDNSKSQVFLKLNSLQTDDTARYFCARETYYGNYAGLGYWGQGTLVTVSA VL: QIVLTQSPAIMSASIGERVTMTCTASSSVSSNYLHWYQQKPRSSPKLWIYTTSNLASGVPTRFSGSGSGTSYSLTISSMEAEDAATYYCHQFHRSPFTFGSGTKLEIK	6.45	0.000548	93300	–	–	–	–	–	–	–	–	–	–	–	–
3F9.E4 (antibody, V domains shown, Mouse monoclonal: captured on anti-mouse IgG Fc sensors and detected with anti-mouse IgG; also called 3F9 antibody; anti-MICA/B mAb) VH: EVQLQESGEGLVKPGGSLKLSCAASGFTFSNYAMSWVRQTPEKRLEWVAYISPGGDYIYYADTVKGRFTISRDNARNTLYLQMSSLKSEDTAMYYCTTDRRHYGSYAMDYWGQGISVTVSS VL: DIVMTQAAPSVPVTPGESVSISCRSSKSLLHSNGNTYLYWFLQRPGQSPQLLIYRMSNLASGVPDRFSGSGSGTAFTLRISRVEAEDVGVYYCMQHLEYPFTFGSGTKLEIK	1.18	0.000421	383000	~0.03	~0.03	~0.03	~0.03	~0.03	~0.03	–	–	–	–	–	–
anti-MICA/B 3F9H1L3L wild type antibody (antibody, human IgG1, kappa, also called CLN-619; CLN619; copies: 2 + 2) heavy: not shown light: DIVMTQSPLSLPVTPGEPASISCRSSKSLLHSNLNTYLYWFLQKPGQSPQILIYRMSNLASGVPDRFSGSGSGTAFTLKISRVEAEDVGVYYCMQHLEYPFTFGPGTKLEIKRTVAAPSVFIFPPSDEQLKSGTASVVCLLNNFYPREAKVQWKVDNALQSGNSQESVTEQDSKDSTYSLSSTLTLSKADYEKHKVYACEVTHQGLSSPVTKSFNRGEC	–	–	–	–	–	–	–	–	–	binds	489	binds	binds	binds	binds
anti-MICA/B 3F9H1L3L afucosylated antibody (antibody, human IgG1, kappa, afucosylated Fc N-glycan (Fc glycosylation site Asn 297, EU numbering), made with GlymaxX technology, It differs only by lacking fucose on the Fc glycan; also called GLYMAXX; 3F9H1L3L GLYMAXX; copies: 2 + 2) heavy: not shown light: DIVMTQSPLSLPVTPGEPASISCRSSKSLLHSNLNTYLYWFLQKPGQSPQILIYRMSNLASGVPDRFSGSGSGTAFTLKISRVEAEDVGVYYCMQHLEYPFTFGPGTKLEIKRTVAAPSVFIFPPSDEQLKSGTASVVCLLNNFYPREAKVQWKVDNALQSGNSQESVTEQDSKDSTYSLSSTLTLSKADYEKHKVYACEVTHQGLSSPVTKSFNRGEC	–	–	–	–	–	–	–	–	–	binds	468	binds	binds	binds	binds
anti-MICA/B 3F9H1L3L antibody with the two heavy chain S239D and I332E mutations (antibody, human IgG1, kappa, also called 3F9HIL3L S239D and I332E; CLN-619 DM; copies: 2 + 2) heavy: not shown light: DIVMTQSPLSLPVTPGEPASISCRSSKSLLHSNLNTYLYWFLQKPGQSPQILIYRMSNLASGVPDRFSGSGSGTAFTLKISRVEAEDVGVYYCMQHLEYPFTFGPGTKLEIKRTVAAPSVFIFPPSDEQLKSGTASVVCLLNNFYPREAKVQWKVDNALQSGNSQESVTEQDSKDSTYSLSSTLTLSKADYEKHKVYACEVTHQGLSSPVTKSFNRGEC	–	–	–	–	–	–	–	–	–	binds	504	binds	binds	binds	binds
